Drawing on a protein production outcome set (Wang et al. 2014), this text covers protein production for 15 sequences.

The nature of this data set: label from the status in PepcDB records.

For “MHFRDTSERQSDAVNESSLDSVHLQMIKGMLYQQRQDFSSQDSVSRKKVLSLNLKQTSKTEEIKNVLGGSTCYNYSVKDLQEISGSELCFPSGQKIKSAYLPQRQIHIPAVFQSPAHYKQTFTSCLIEHLNILLFGLAQNLQKALSKVDISFYTSLKGEKLKNAENNVPSCHHSQPAKLVMVKKEGPNKGRLFYTCDGPKADRCKFFKWLEDVTPGYSTQEGARPGMVLSDIKSIGLYLRSQKIPLYEECQLLVRKGFDFQRKQYGKLKKFTTVNPEFYNEPKTKLYLKLSRKERSSAYSKNDLWVVSKTLDFELDTFIACSAFFGPSSINEIEILPLKGYFPSNWPTNMVVHALLVCNASTELTTLKNIQDYFNPATLPLTQYLLTTSSPTIVSNKRVSKRKFIPPAFTNVSTKFELLSLGATLKLASELIQVHKLNKDQATALIQIAQMMASHESIEEVKELQTHTFPITIIHGVFGAGKSYLLAVVILFFVQLFEKSEAPTIGNARPWKLLISSSTNVAVDRVLLGLLSLGFENFIRVGSVRKIAKPILPYSLHAGSENESEQLKELHALMKEDLTPTERVYVRKSIEQHKLGTNRTLLKQVRVVGVTCAACPFPCMNDLKFPVVVLDECSQITEPASLLPIARFECEKLILVGDPKQLPPTIQGSDAAHENGLEQTLFDRLCLMGHKPILLRTQYRCHPAISAIANDLFYKGALMNGVTEIERSPLLEWLPTLCFYNVKGLEQIERDNSFHNVAEATFTLKLIQSLIASGIAGSMIGVITLYKSQMYKLCHLLSAVDFHHPDIKTVQVSTVDAFQGAEKEIIILSCVRTRQVGFIDSEKRMNVALTRGKRHLLIVGNLACLRKNQLWGRVIQHCEGREDGLQHANQYEPQLNHLLKDYFEKQVEEKQKKKSEKEKSKDKSHS”, the protein production result is listed as “failed”. Turning to “MHIAIIGDQAATRQATTQLLSQLTTPTQPLQVTAYPTAEAFLFADQPADLLLLDIKLGSGMDGMTLAKQIREHDAATAIAFVSNYDEFVFDGYDVNALDYVIKPITSDKLQHLISKVAAQTQPKLLVFTTANGIQRVAMYDISAIEVTDHRLQVHTQKMTYTVAGQLKEFLPQLDENFIQIYRSIVINLNFLSQLEKNTVVMADGTSYPVSRQQAPLVKQAFFKHFRGLAHDSELEHHHHHH”, the protein production entry is given as “failed”. In the case of “MHIKSAIIVVSDRISTGTRENKALPLLQRLMSDELQDYSYELISEVVVPEGYDTVVEAIATALKQGARFIITAGGTGIRAKNQTPEATASFIHTRCEGLEQQILIHGSTHTHLAGLSRGIVGVTGRDDHAALIVNAPSSSGGITDTWAVISPVIPNIFEGLDAS” it was “not failed”; in that of “MHKEIAKELLLLAGGKNNIISISHCTTRLRFDVKDETKIDIHAIENLQGVQGTFFRYGLFQIIFGAGVVNKIYKEVVHVWETAPSEEPVHQKKASRKLNPAAAFAKTLSDI”, “failed”; in that of “MHLKNNQTLANGATVTIYPTTTEPTNYVVYLHGGGMIYGTKSDLPEELKELFTSNGYTVLALDYLLAPNTKIDHILRTLTETFQLLNEEIIQNQSFGLCGRSAGGYLMLQLTKQLQTLNLTPQFLVNFYGYTDLEFIKEPRKLLKQAISAKEIAAIDQTKPVWDDPFLSRYLLYHYSIQQALLPHFYGLPENGDWSAYALSDETLKTFPPCFSTASSSDEEVPFRYSKKIGRTIPESTFKAVYYLEHDFLKQTKDPSVITLFEQLDSWLKER”, “not failed”. As for “MHLLQAVSYRYLILAVIGLPEKYRKPQALACHHRRTAMNRLSAFALAAAIGIAAAPVAQAGELWRATGLEQPESALFDAANNRIIVSNIVGNPGEADGNGYLSVLSLDGKTITQHWTDGMDAPKGMAISGGKLYVADITKVRVVDLASGKLIASIVVPNAVFLNDMTSDHTGKVYVSDMLADTIYRIDGDRPELFVRDALLASPNGVFADGDRLIVASWGKGIKPDFSTAEPGGLLAVDLASKAVSPLPGAQKFADLDGVIAIGDTIYATAYMTGTLYRYKAGGAPEAVAHFKPGSADIGTDGKSILYVPLMNEGEVAALKLD”, the protein production result was “failed”. In the case of “MHLQKLKNIVWTKRIGHLFERVTDIENIKRAIKRAAKRKTHRPSVQRILNDIDSYARKIQEMLVNETFVPAKYTIREIYDGIKKKKRVIAVPRFYPDQCIHHAFVQVFREIVEHGADKFSCGCVPGKGTDGARKMIKHWIKSDPIGTSKVLKLDVHHCYPTMNHEALRQKLEKKIKDRKLLNLAFKLIASYQQPMADHTRMLPEVDAVGIPVGLYTSPWFCNFFFQDIDHMIAEKTGAKHHTRYVDDIVLFDSNKRRLHKALRMIADELRKVKMQVKANWQVFPLKDRPLDFLGYKFHAGAWTTLRKSIMFRISHKAKKISKISYISPTNASGMISYMGFIYNSDSWNFWKERVKPFINLKLLKGVVSNENRKQHQAACAA” it was “failed”. Consider “MHLRDRPGFGPGGPFRFRALPRAADKGTMMFKKILIANRGEIACRVIKTARKMGIQTVAVYSDADRNALHVSMADEAIHIGPPPANQSYIVIDKIMEAIKASGAEAVHPGYGFLSERMDFAAALEAAGVVFIGPPSGAIEAMGDKITSKKLAKEAGVSTVPGYMGLIADADEAVKISNEIGYPVMIKASAGGGGKGMRIAWSEAEVKEGFESSKNEAANSFGDDRIFIEKFVTQPRHIEIQVLADKHGNCVYLHERECSIQRRNQKVIEEAPSPFLDEATRKAMGEQACALAKAVGYASAGTVEFIVDGQKNFYFLEMNTRLQVEHPVTELITGIDLVEQMIRVAAGEKLPFQQSDLKINGWAMESRLYAEDPYRNFLPSIGRLTRYRPPVESVTPTSVVRNDTGVYEGGEISMYYDPMIAKLCTWAPTREAAIEEMRLALDTFEVEGIGHNLPFVGAVMDHPRFVKGDITTAFIAEEYPDGFQGAVLDEPTLRRVAAAAAAMNRVAEIRRTRISGTMNNHERHVGVDWVVALQGESYHVSIAADREGSTVSFSDGSSLRVTSDWTPGQPLASLMVDGRPLVMKVGKIPMGFRLRLRGADLKVNVRTPRQAELALLMPEKLPPDTSKYLLCPMPGLVVKINVAEGDEVQEGQALATVEAMKMENILRAERRGTVKKIAAAPGASLRVDDVIMEFE”, for which the protein production entry is “failed”.

For “MHLSAYLLLVASLLFALFFAGTAAIQIWQGRTTALPWMEKGHLMLTAFMSVASAVLLHALANFDFSLVYVASYTDRALPLFYRLTAFWAGQAGSMLFWGWSVALFGVFFLFSPVYRRVSEPTRMWFWLLFLAMMGFFLLVLTCWSNPFTVVDPAPADGNGLNPLLQNPGMIFHPPLLFLGYGGFAIPGCLALAQSLSGMRLSEGAWADHARPFTLVAWLFLTAGIVLGGWWAYMELGWGGYWAWDPVENASLIPWLIASAYLHTAVIEARRNKLHRVNTFLMALTTISAFFATYLVRSGVVESLHAFGDGGVGTPLLIFIIVFTAVALGGSILWKHPDAKPLSGVESREGFLVMVAWVLLALGAIILVATMWPVFSKFWVDKPVGLEPAFYNRVCLPLFAVLVVMLAICPWLGWKGGLRNKVGAVTALGLFVGAAGGIWAAGYTIPTAVLGAAGAIAALGGIVMLLATEPHLRRSPQSLAAYGVHIGLALTALGVAFSGPYKTEHEVIMQQGDTVQVAGYDVTFKALYEGEGPGYIFIEAELDVKKNGSDVGMAQPQRRIYSKFGKQAFAEASTIPGLGNEFYAVLLGVDREGKATLHLNVTPLINWVWIGSIIMCLFPFIGMRRRKTAEA”, the protein production entry was “failed”. With “MHLSLMISRHYINRMKLSLMHISILAGIPEEFKVNIYIGWLFKLIPLIMGLICIALGGFVLESSGQSEYFVAGHVLISLAAICLALFTTAFIIISQLTRGVNTFYNTLFPIIGYAGSIITMIWGWALLAGNDVMADEFVAGHVIFGVGMIAACVSTVAASSGHFLLIPKNAAGSKSDGTPVQAYSSLIGNCLIAVPVLLTLLGFIWSITLLRSADITPHYVAGHVLLGLTAICACLIGLVATIVHQTRNTFSTKEHWLWCYWVIFLGSITVLQGIYVLVSSDASARLAPGIILICLGMICYSIFSKVWLLALVWRRTCSLANRIPMIPVFTCLFCLFLASFLAEMAQTDMGYFIPSRVLVGLGAVCFTLFSIVSILEAGSAKK”, the protein production entry is reported as “failed”. Turning to “MHLTKTWLAQLPLTDIQQVQPVSGGDINAAFQIITRHHQYFLKVQPHNDVTFFDHEVAGLRLLGAVTKTPRVIASGTIATDGYLLLDWLATGTGSQSALGAAVAKVHHQHHAQFGLDHDFTAGKLPKINHWQTDWATFYTQQRLDVLVNLAKEHHLWSETREMHYHRLRQQLLQDSHMHTVKPSLLHGDLWSGNYLFDTTGTPVLIDPDVFYGDREMDLAMTTIFGGFDTDFYQAYQAAYPVAPGMQDRLPSYQLYYLLAHLNLFGETYGPAVDRILMQY”, the protein production result is reported as “failed”. For “MHNFEEELTCPICYSIFEDPRVLPCSHTFCRNCLENILQASGNFYIWRPLRIPLKCPNCRSITEIAPTGIESLPVNFALRAIIEKYQQEDHPDIVTCPEHYRQPLNVYCLLDKKLVCGHCLTIGQHHGHPIDDLQSAYLKEKDTPQKLLEQLTDTHWTDLTHLIEKPKEQKSHSEKMIQGDKEAVLQYFKELNDTLEQKKKSFLTALCDVGNLINQEYTPQIERMKEIREQQLELMALTISLQEESPLKFLEKVDDVRQHVQILKQRPLPEVQPVEIYPRVSKILKEEWSRTEIGQIKNVLIPKMKISPKRMSCSWPGTPVYSVAWGPDSEKVLYTAGKQLIIKPLQPNAKVLQWKAHDGIILKVDWNSVNDLILSAGEDCKYKVWDSYGRPLYNSQPHEHPITSVAWAPDGELFAVGSFHTLRLCDKTGWSYALEKPNTGSIFNIAWSIDGTQIAGACGNGHVVFAHVVEQHWEWKNFQVTLTKRRAMQVRNVLNDAVDLLEFRDRVIKASLNYAHLVVSTSLQCYVFSTKNWNTPIIFDLKEGTVSLILQAERHFLLVDGSSIYLYSYEGRFISSPKFPGMRTDILNAQTVSLSNDTIAIRDKADEKIIFLFEASTGKPLGDGKFLSHKNEILEIALDQKGLTNDRKIAFIDKNRDLCITSVKRFGKEEQIIKLGTMVHTLAWNDTCNILCGLQDTRFIVWYYPNTVYVDRDILPKTLYERDASEFSKNPHIVSFVGNQVTIRRADGSLVHISITPYPAILHEYVSSSKWEDAVRLCRFVKEQTMWACLAAMAVANRDMTTAEVAYAAIGEIDKVQYINSIKNLPSKESKMAHILLFSGNIQEAEIVLLQAGLVYQAIQININLYNWERALELAVKYKTHVDTVLAYRQKFLETFGKQETNKRYLHYAEGLQIDWEKIKAKIEMEITKEREQSSSSQSSKSIGLKP”, the protein production result was “failed”. For the sequence “MHPALVLAAIALIAIKLDPRFVLGLLVLLTLIYGKKRGFSLKLRNVTEDESYFNAFLFSTILSALSCFSLPKDVVFASIFLISVHNYRKNALWNIAVYTTASLLYFLCYHAVNGVELRLAHTFFISLSGGLTAALVESVDTNADRRLTLLLAISSVFTIFKMYVPSASIYSLAFAFLLSFFVSLLALYAKVADESGLMSATIVGTTLILFADIRFFAVILLFYALGSAITKYKYSVKLERGIAEQAGGARGYANVFGNSLAPLFFAVQFGVSGDAIFAAAFVAAVAAALADTMASEIGKAEEKVYLITNFSRVEPGTSGGISVKGEFAALFGCIVTALLSLLLGIIGFDVLLPVTLSAFAGVHIDSLLGATLEKKGYLTNSAVNFLGTLSAGIICVLLLLPLL”, the protein production result was “failed”.

As to “MHQQIIKFWFEELTPQNWFENNPELDKHIASRFASVLEQAARCELFNWRDSAQGRLAEIIVLDQFSRNVYRNTPKAFAQDPLALALAQEAIRLGHDQELAPEQLSFLYMPFMHSESRLIHVEAEKLFRASGLENNYDFELKHKAIIDQFGRYPHRNAILGRESTPEELAFLQQPGSSF”, the protein production result is “not failed”. In the case of “MHRTTRIKITELNPHLMCVLCGGYFIDATTIIECLHSFCKTCIVRYLETSKYCPICDVQVHKTRPLLNIRSDKTLQDIVYKLVPGLFKNEMKRRRDFYAAHPSADAANGSNEDRGEVADEDKRIITDDEIISLSIEFFDQNRLDRKVNKDKEKSKEEVNDKRYLRCPAAMTVMHLRKFLRSKMDIPNTFQIDVMYEEEPLKDYYTLMDIAYIYTWRRNGPLPLKYRVRPTCKRMKISHQRDGLTNAGELESDSGSDKANSPAGGVPSTSSCLPSPSTPVQSPHPQFPHISSTMNGTSNSPSGNHQSSFANRPRKSSVNGSSATSSG” it was “failed”.
